This note sets out measurements from the supplement of paper PMC12042874.

± gives the uncertainty stated by the source.

This data set in a line: amyloid nucleation score (Sup35N fusion, yeast selection) (log enrichment); library NNK1; higher = more nucleation; inactive = no reads after selection. The procedure, abridged:
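Output and input plasmid inserts were sequenced by Illumina after psi-negative yeast carrying Sup35N fused to peptides of 20 random codons had been induced 24 hours with 100 μM copper sulfate and grown 7 days at 30°C on medium lacking adenine and uracil. The nucleation score is the DiMSum log enrichment of output over input reads, centred on the mode score of non-aggregating sequences. Sequences with under 100 input reads were excluded.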
On to HYVYRGQLRGHACKGWSYFG, for which the amyloid nucleation score was 0.531 ± 0.51.
Turning to IAAVQ, the amyloid nucleation score stood at 0.162 ± 0.89.
In turn, IACFFQT returned an amyloid nucleation score of 1.66 ± 0.21.
IARAVSSESASVWVKDT: the amyloid nucleation score is -1.62 ± 2.7.
Under IASLRIIDSIQFISVNSCYG stands 0.356 ± 0.4; under ICCISKILLFCISM, 6.53 ± 0.091; under ICDINQCRMAFYLCFLLREY, 3.35 ± 0.099.
ICEVSLCYR: the amyloid nucleation score amounted to 0.2 ± 1.
Take ICGYWSLKVVCRMCHPYGNG: the amyloid nucleation score was -1.17 ± 0.85.
As for ICHCGRHAVHRRHTCHWTLG, the amyloid nucleation score entry was “inactive”.
Under ICKLRNSTGSTRIT stands 0.227 ± 0.45; under ICLESNRFI, “inactive”.
In the case of ICNPGVS it was 0.71 ± 0.8.
The substance ICSGGYLVWELPSGTADQVM came in with an amyloid nucleation score of 0.25 ± 0.48.
ICSVRSELNSSTRC registered an amyloid nucleation score of 0.803 ± 0.48.
Substance ICVGGNGADCFKMTTGGQLC gave an amyloid nucleation score of -0.481 ± 0.5.
Turning to ICVRMSKFGCWTFSVKRGWQ, the amyloid nucleation score amounted to 0.335 ± 0.77.
As for IDCGIVRWKNRCGAYAFGVD, the amyloid nucleation score is -1.52 ± 2.4.
With IDFYVCDMC, the amyloid nucleation score was 7.857 ± 0.058.
Under IDNTLIIDFLFLCNVRTFLR stands -0.162 ± 0.24; under IDWQLTSLDQGSCFLA, -0.468 ± 0.88.
For the substance IECPMAYTKTYFVYESEKRN, the amyloid nucleation score result is “inactive”.
For the substance IELPRFYILVNFYGTLSLSL, the amyloid nucleation score was found to be 3.83 ± 0.12.
The substance IENDGMSRAFC gave an amyloid nucleation score of 0.635 ± 0.67.
In turn, IEVGYLSTCEFLVRMRKL registered an amyloid nucleation score of 0.346 ± 0.51.
In the case of IEWVPTT it was “inactive”; in that of IFALWTHKTPRQIAPLGTQK, -0.835 ± 1.3.
IFCITGAGLLDRCSSRTLAS: the amyloid nucleation score was -0.175 ± 0.41.
The substance IFCVMVLSWSAVDPALSVA gave an amyloid nucleation score of -1.03 ± 0.81.
Substance IFEWFVPLEWSV had an amyloid nucleation score of 0.012 ± 1.4.
Consider IFLVCVSKN, for which the amyloid nucleation score was 0.601 ± 0.35.
IFVYRRRMGSIV: the amyloid nucleation score stood at 1.08 ± 0.32.
For IFYFELPKFCKIKDISSKWV, the amyloid nucleation score entry is “inactive”.
In the case of IFYFVL it was 6.8 ± 0.074; in that of IGLKKGHYNLILHYYFVWKV, 0.505 ± 0.51.
IGMWSHWR: the amyloid nucleation score is 0.137 ± 0.39.
IGQGFNCIR returned an amyloid nucleation score of -0.083 ± 1.4.
IGYCRGHAYKMRYFSVRWFV: the amyloid nucleation score is -1.25 ± 1.7.
Consider IGYFWCCRLETANIVFNFVW, for which the amyloid nucleation score was -0.724 ± 1.3.
Turning to IHDAYVTESGYWVDV, the amyloid nucleation score is 1.29 ± 0.66.
Under IHHSLHYPLYSWKSNWRTWG stands -0.353 ± 0.61; under IHRLSARCRLNI, 0.657 ± 0.42; under IIFVEWNSGRAC, -0.526 ± 0.51.
Take IIGQLRI: the amyloid nucleation score came to 0.454 ± 0.66.
In turn, IIGQYMQFAYFSVDRTL came in with an amyloid nucleation score of 0.871 ± 0.38.
IIILYMLRPAMSGWDVFACC gave an amyloid nucleation score of 0.627 ± 0.18.
Take IIIRCKSVVA: the amyloid nucleation score is -0.656 ± 1.9.
Under IILYVLANFIMWWREVFNPK stands 0.218 ± 0.48.
Under IIMVRLFSRNGVEDC stands 1.61 ± 0.12; under IINKS, -0.766 ± 2.4.
Substance IIRDSFKNRPETAYTHRTWD displayed an amyloid nucleation score of 1.13 ± 0.15.
IIRFTTFPCFNVR came in with an amyloid nucleation score of 2.1 ± 0.13.
Regarding IIRFWLTSVVIYMSFLCRGR, the amyloid nucleation score was -1.2 ± 1.9.
In the case of IISLVNVWQNMCR it was 5.15 ± 0.077.
In turn, IISPYHLLLIKYRSSCSLLH gave an amyloid nucleation score of 0.985 ± 0.33.
IITCRSASETMWFSCFDGLA registered an amyloid nucleation score of 2.95 ± 0.17.
Under IKCPRLK stands -0.466 ± 0.66; under IKGFALVWTPFGLAFFYRG, 0.113 ± 0.95.
IKPDWKMKNRDGTTTKLI gave an amyloid nucleation score of 2.6 ± 0.093.
The substance IKRKSAESNGCSLYLYDSLK gave an amyloid nucleation score of -0.189 ± 0.43.
IKWANREALLLWVELGRLRW showed an amyloid nucleation score of -0.66 ± 0.84.
IKYVQIGRRRLKWGGERRPL had an amyloid nucleation score of 0.311 ± 0.37.
In the case of ILCCLMSFWDVRKFFFNQKA it was -0.722 ± 0.41.
For the substance ILCFFRECLLDWVSLGRFIV, the amyloid nucleation score result was “inactive”.
In turn, ILCKVPVVASSNGS registered an amyloid nucleation score of -0.35 ± 0.5.
As for ILFMLECGMSTTSCHKIRVC, the amyloid nucleation score was -0.157 ± 0.36.
ILGQYGALYSIGTHWFLFVI showed an amyloid nucleation score of -0.755 ± 0.37.
On to ILHIEDAVMADWMHILMGSR, for which the amyloid nucleation score was 0.571 ± 0.35.
Substance ILIAIMNFARSEVVTNGHIR showed an amyloid nucleation score of 2.13 ± 0.41.
On to ILICQCLMLACGRVFSFYLV, for which the amyloid nucleation score was -0.328 ± 0.57.
Regarding ILKSSGICFDGLPTKFNL, the amyloid nucleation score amounted to 0.127 ± 0.25.
Consider ILLGYGQSMSRHIPTDKNEL, for which the amyloid nucleation score is -0.79 ± 0.74.
In the case of ILLPWGMCWWMLCR, the amyloid nucleation score is 0.036 ± 0.55.
Consider ILLVSNEEISLCYCVYLGWM, for which the amyloid nucleation score was found to be 5.729 ± 0.056.
ILQFFDILSIYVCGWEHEL: the amyloid nucleation score came out at 6.273 ± 0.053.
The substance ILQIYLMWQVW came in with an amyloid nucleation score of 4.85 ± 0.05.
Under ILSGRRDNSAERGRGGLWVM stands -0.206 ± 1.2; under ILSRKGLLVQRKRVNVVVIP, 0.437 ± 0.32; under ILSVVYVLVCVVQVLCKQWH, 0.163 ± 0.43.
As to ILTFQSCRRFACKAFMFRRR, the amyloid nucleation score turned out to be 2.07 ± 0.16.
In the case of ILVGCSKSRRLNGGQLLIPS it was 0.314 ± 0.45; in that of ILVLYSVRWIEATR, -0.224 ± 0.35.
In the case of ILVVAVI it was -0.64 ± 0.39; in that of ILWFYYTLGACFCWLYINYK, 0.26 ± 0.57; in that of ILWLVRSGVSYQQGGDSTPV, 0.919 ± 0.28.
For ILYFMLSRFTVVN, the amyloid nucleation score is 0.881 ± 0.76.
ILYGISSFESIADWAGLMSV came in with an amyloid nucleation score of 0.535 ± 0.84.
As to ILYTSTVGTQLPKDGLDC, the amyloid nucleation score turned out to be 0.593 ± 0.34.
For IMAFNDRDHG, the amyloid nucleation score was -0.093 ± 0.21.
Substance IMGVDVLGYTLDPVGDCNVF returned an amyloid nucleation score of 0.412 ± 0.73.
In turn, IMHQYRRGYDRDLNWNRMFR had an amyloid nucleation score of 0.035 ± 0.72.
Substance IMLANVSLLVRNHGRY had an amyloid nucleation score of 3.02 ± 0.16.
IMLQCYIVFCFRGRSLIRKA: the amyloid nucleation score is -0.524 ± 0.36.
Turning to IMNMIA, the amyloid nucleation score was found to be 0.455 ± 0.48.
Under IMRSMSGWFGFVMLFDAS stands -0.598 ± 0.79; under IMRYLGVKKVE, -0.245 ± 0.4; under IMSYLKTLSPVIAMRTIERP, 0.821 ± 0.5.
The substance INDRVDGSVIEMSLCRYG had an amyloid nucleation score of 1.19 ± 0.8.
For the substance INIVVMGMAGRRQGVPVACV, the amyloid nucleation score came out at 1.59 ± 0.72.
In the case of INKNCTANEP it was -0.067 ± 0.23; in that of INNTLNI, 0.793 ± 0.47.
For the substance INTSR, the amyloid nucleation score was 0.038 ± 0.23.
In the case of IPLGPGLPACINEGLKNPVS it was -0.439 ± 0.67; in that of IPMLFMSLRV, 0.171 ± 0.26.
The substance IPMPMLRRKKTGYLLSTGSA had an amyloid nucleation score of 0.532 ± 0.49.
